Experimental data taken from US20140072563A1 (Regeneron, published 2014).
Changes are numbered by the printed parent chain. Names may count otherwise.

T1: hErbB3.mFc (soluble dimeric human ErbB3 extracellular domain fused to mouse Fc) (human)
T1 construct: called dimeric
T1 chain: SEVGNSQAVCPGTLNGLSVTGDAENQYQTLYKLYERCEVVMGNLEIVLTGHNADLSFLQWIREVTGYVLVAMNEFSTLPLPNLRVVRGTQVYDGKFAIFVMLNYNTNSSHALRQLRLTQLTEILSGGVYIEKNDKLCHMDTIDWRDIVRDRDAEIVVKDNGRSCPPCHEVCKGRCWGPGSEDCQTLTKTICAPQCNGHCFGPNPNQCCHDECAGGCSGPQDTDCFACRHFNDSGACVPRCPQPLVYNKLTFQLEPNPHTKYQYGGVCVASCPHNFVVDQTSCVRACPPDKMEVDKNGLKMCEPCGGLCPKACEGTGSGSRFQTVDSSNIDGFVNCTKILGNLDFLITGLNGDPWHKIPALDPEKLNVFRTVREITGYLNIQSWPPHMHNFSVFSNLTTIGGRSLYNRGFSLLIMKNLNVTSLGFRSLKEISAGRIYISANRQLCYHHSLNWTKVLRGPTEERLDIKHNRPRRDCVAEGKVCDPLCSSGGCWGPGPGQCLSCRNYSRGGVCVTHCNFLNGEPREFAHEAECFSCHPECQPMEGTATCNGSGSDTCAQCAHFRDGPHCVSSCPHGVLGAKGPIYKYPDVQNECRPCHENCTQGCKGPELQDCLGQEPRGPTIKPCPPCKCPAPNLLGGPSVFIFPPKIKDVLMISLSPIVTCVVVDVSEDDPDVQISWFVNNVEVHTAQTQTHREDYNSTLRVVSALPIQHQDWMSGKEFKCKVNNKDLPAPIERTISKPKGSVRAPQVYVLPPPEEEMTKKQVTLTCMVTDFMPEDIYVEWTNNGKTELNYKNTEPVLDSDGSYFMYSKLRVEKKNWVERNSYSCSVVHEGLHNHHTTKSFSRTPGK

B1: H4H2108P (antibody, V domains shown)
VH: EVQLLESGGDLVQPGGSLRLSCATSGFSFSSDAMNWVRQAPGKGLEWVSGISGSGGNTYYADSVKGRFTISRDISKSTLSLQMNSLRAEDTAVYYCAKEGTNMVRGVVMEDNGMDVWGQGTTVTVSA
VL: DIQMTQSPSSVSASVGDRVTITCRASQGISDYLAWYQQKPGKAPKLLIYAASSLQSGVPSRFSGRGSGTDFTLTISTLQPEDFATYYCQQANSFPLTFGGGTKVDIKR
notes: Fully human, human IgG4 Fc (H4H prefix)
B2: H4H2132P (antibody, V domains shown)
VH: EVQLVESGGGVVRPGGSLRLSCAASGFTFDDYGMSWVRQFPGKGLEWVSSIDGNGGNTGYSDSVKGRFTISRDNAKNSLHLQMNSLRAEDTALYHCARDPDYDSVWGNYRPFDYWGQGTLVTVSS
VL: DIVMTQSPDSLAVSLGERATINCKSSQSVLSSSNDNNYLAWFQQKPGQPPNLLIYWASTRDSGVPDRFSASGSGTDFTLAISSLQAEDVAVYYCHQYYSSPPTFGQGTKVEIKR
notes: as for B1
B3: H4H2092P (antibody, V domains shown)
VH: EVQLVESGGGVVRPGGSLRLSCAASGFTFEDYGMNWVRQVPGKGLEWVSGTNWNGGITGYTGSVKGRFTISRDNAKNSLYLQMNSLRAEDTALYHCARDSGDQDAFDIWGQGTMVTVSS
VL: DIQLTQSPSFLSASVGDRVTITCWASQDISSYLAWYQQKPGKAPKLLIYAASTFQSGVPSRFSGSGSGTEFTLTISNLQPEDFATYYCQQLDSYPLSFGGGTKVEIKR
notes: as for B1
B4: H4H2094P (antibody, V domains shown)
VH: EVQLVESGGGLVQPGGSLRLSCAASGFTFSSYDMHWVRQATGKGLEWVSAIGPAGDTYYPVSAMGRFTISRDDAKNSLYLQMNSLRAGDTAVYYCAREGVTIRPDDYFGLDVWGQGTTVTVSA
VL: B3 VL with D28G, S31D, Q38K, K45Q, S52T, F54L, N77S, D92N, S93T, S97T
notes: as for B1
B5: H4H2140P (antibody, V domains shown)
VH: EVQLVESGGGLVQPGGSLRLSCAASGFSVSYYDMHWVRQVTGKGLEWVSAIGPAGDTYYPGSVKGRFTISREDATNSLYLQIHSLGAGDTAVYYCAREGAIAARPDDYYGMDVWGQGTTVTVSS
VL: B3 VL with F54L, N77S, D92N, S97T
notes: as for B1
B6: H4H2102P (antibody, V domains shown)
VH: EVQLVESGGGLVQPGGSLRLSCAASGFTFSNYDIHWVRQATGKGLEWVSAIGPAGDTYYSDSVKGRFTISREDAKNSLYLQMSSLRAGDTAVYYCASEGIAVRPDDYYGMDVWGQGTTVTVSA
VL: B3 VL with S30T, Q38K, F54L, N77S, T85A, D92N, S97T, E105D
notes: as for B1
B7: H4H2143P (antibody, V domains shown)
VH: EVQLVESGGGLVQPGRSLRLSCAASGFTFGDYAMHWVRQAPGKGLEWVSGINLNSGTIGYADSVKGRFTISRDNAKNSLYLQMNSLRAEDTAFYYCAKDIDGYYHYAMDVWGQGTTVTVSS
VL: B3 VL with I2V, Q3V, L4M, D28G, A50D, F54L, Q55E, L91V, D92N, S97T
notes: as for B1
B8: H4H2147P (antibody, V domains shown)
VH: QVQLVESGGGLVKPGGSLRLSCAASGFTFSDFNMGWIRQAPGKGLEWVSHISGSGNVIYYADSVKGRFAISRDNGKNSLYLQVNSLRAEDTAVYYCARDIGDSDAFDIWGQGTMVTVSS
VL: B3 VL with A50G, F54L, Q55E, N77S, F83V, D92N, S93T, S97T
notes: as for B1
B9: H4H2111P (antibody, V domains shown)
VH: QVQLVESGGGVVQPGRSLRLSCAASGFTFNNYGMHWVRQAPGKGLAWVAVMWYSESHKYYADSVKGRFTISRDNSKNTLYLEMNSLRVEDTAIYYCARDLGDPDAFDIWGQGTMVTVSS
VL: B3 VL with D28G, A50G, F54L, N77S, D92N, S97T
notes: as for B1
B10: H4H2138P (antibody, V domains shown)
VH: QVQLQESGPGLVKPSQTLSLTCTVSGGSINSGGYYWSWIRQHPGKGLEWIGYISYSGNTNYNPSLKSRVTISVDTSKNQFSLTLTSVTAADTAVYYCARDSDVDTGLVDGFDVWGQGTMVTVSS
VL: DIVMTQSPSSVSASVGDRVTITCRASQGVSSWLAWYQQKPGKAPKLLIYTTSSLQSGVPSRFSGSGSGTDFTLTISSLQPEDFATYYCQQSNSFPFTFGPGTKVEIK
notes: as for B1
B11: H4H2098P (antibody, V domains shown)
VH: QVQLVESGGGVVQPGRSLRLSCAASGFTFSSFGMHWVRQAPGKGLEWVAVIWYVEINKYHADSVKGRFTISRDDSKNTVYLQMNSLRAEDTAVYYCARDWNDGDYGMDVWGQGTTVTVSS
VL: DIQLTQSPSFLSASVGDRVTITCWASQGISSFLAWYQQKAGKAPRLLIYAASTLQTGVPSRFSGSGSGTEFTLTISSLQPGDFATYHCQQLNSYPYTFGQGTKLEIKR
notes: as for B1
B12: H4H2084P (antibody, V domains shown)
VH: QVQLVESGGGVVQSGKSLRLSCVASGFTFSNYGMHWVRQTPGKGLEWVARIWFDGTNKYYTDSVKGRFTLSRDSSKNTLYLQMNSLRAEDTAVYFCAREESLELDHYVMDVWGQGTTVTVSS
VL: AIQMTQSPSSLSASVGDRVTITCRASQDIRDDLGWFQQKPGKAPNLLIYAASSLQSGVPSRFSGSGSGTDFTLTISSLQPEDFATYYCLQDYNYPLTFGGGTKVEIKR
notes: as for B1
B13: H4H2114P (antibody, V domains shown)
VH: QVQLVESGGGVVQPGRSLRLSCAASGFTFSSYGMHWVRQAPGKGLEWVAGMSYDGSSKYYEDSVKGRFTISRDNSKNTLNLQMNSLRVEDTAVYYCAKERDYVEYVDSYYGMDVWGQGTTVTVSA
VL: B12 VL with D28G, D31N, F36Y, N45K, L46V, D70V
notes: as for B1
B14: H4H2146P (antibody, V domains shown)
VH: QVQLVESGGGVVQPGRSLRLSCAASGFTFINYGIHWVRQGPGKGLEWVAVIWYDGSNEWYADSVKGRFTISRDNSKNTVYLEMNKLRAEDTAVYYCAREEEDYGMDVWGQGTTVTVSS
VL: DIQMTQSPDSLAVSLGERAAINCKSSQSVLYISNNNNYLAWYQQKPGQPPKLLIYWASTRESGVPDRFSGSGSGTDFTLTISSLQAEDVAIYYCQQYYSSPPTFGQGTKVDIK
notes: as for B1

Legend:
[1] = biological target: hErbB3.mmh (soluble monomeric human ErbB3 extracellular domain with C-terminal myc-myc-hexahistidine tag) (human, UniProt P21860 20-642); assay: SPR (Biacore), 25 C, mAb capture format
Method: (§1) (Tables 2-4). Measurements were conducted on a Biacore 2000 or T100 instrument. […] Kinetic association (kₐ) and dissociation (kd) rate constants were determined by processing and fitting the data to a 1:1 binding model using Scrubber 2.0 curve fitting software.

[2] = biological target: T1, hErbB3.mFc (soluble dimeric human ErbB3 …); assay: SPR (Biacore), 25 C, mAb capture format
Method: as §1

| Kd [1] [pM] | T½ [1] [h] | koff [1] [s⁻¹] | kon [1] [M⁻¹ s⁻¹] | Kd [2] [pM] | T½ [2] [h] | koff [2] [s⁻¹] | kon [2] [M⁻¹ s⁻¹] | Binder |
| --- | --- | --- | --- | --- | --- | --- | --- | --- |
| 41.8 | 2.18 | 8.13e-05 | 1.95e+06 | 1.46 | 41 | 4.33e-06 | 2.96e+06 | B1 |
| 17.7 | 4.65 | 3.81e-05 | 2.16e+06 | 0.958 | 53 | 3.35e-06 | 3.49e+06 | B2 |
| 27.8 | 1.72 | 0.000103 | 3.72e+06 | 1.45 | 23.8 | 7.46e-06 | 5.16e+06 | B3 |
| 7.22 | 13 | 1.37e-05 | 1.89e+06 | 0.452 | 130 | 1.37e-06 | 3.03e+06 | B4 |
| 19.8 | 5.43 | 3.27e-05 | 1.66e+06 | 0.393 | 180 | 9.86e-07 | 2.51e+06 | B5 |
| 55.1 | 3.63 | 4.88e-05 | 886000 | 1.43 | 78.7 | 2.26e-06 | 1.58e+06 | B6 |
| 53.1 | 1.82 | 9.73e-05 | 1.83e+06 | 1.75 | 38.4 | 4.63e-06 | 2.86e+06 | B7 |
| 43.8 | 1.63 | 0.000108 | 2.47e+06 | 1.5 | 38.8 | 4.58e-06 | 3.33e+06 | B8 |
| 53.1 | 1.52 | 0.000118 | 2.21e+06 | 2.49 | 20.4 | 8.69e-06 | 3.5e+06 | B9 |
| 20.9 | 3.55 | 5.01e-05 | 2.39e+06 | 1.47 | 32.5 | 5.46e-06 | 3.71e+06 | B10 |
| 69 | 2.25 | 7.89e-05 | 1.14e+06 | 4.06 | 19.8 | 8.97e-06 | 2.21e+06 | B11 |
| 23.9 | 2.98 | 5.96e-05 | 2.49e+06 | 1.03 | 44.9 | 3.95e-06 | 3.83e+06 | B12 |
| 106 | 1.8 | 9.88e-05 | 929000 | 5.41 | 22.2 | 7.98e-06 | 1.48e+06 | B13 |
| 12.4 | 5.13 | 3.46e-05 | 2.79e+06 | 0.435 | 89.9 | 1.98e-06 | 4.54e+06 | B14 |
